Data taken from IntAct's records for PubMed 20935634.

B1: FAS-associated death domain protein (Homo sapiens), Q13158 (parent)
chain: MDPFLVLLHSVSSSLSSSELTELKFLCLGRVGKRKLERVQSGLDLFSMLLEQNDLEPGHTELLRELLASLRRHDLLRRVDDFEAGAAAGAAPGEEDLCAAFNVICDNVGKDWRRLARQLKVSDTKIDSIEDRYPRNLTERVRESLRIWKNTEKENATVAHLVGALRSCQMNLVADLVQEVQQARDLQNRSGAMSPMSWNSDASTSEAS

Variants of: B1
Conditions: with FAS

| Variant | effect of a mutation on the interaction |
| --- | --- |
| L172K | disrupting interaction |
| D175K | disrupting interaction |

Variants of: B1
Conditions: with FAS
Remark: another data set of the same source

| Variant | effect of a mutation on the interaction |
| --- | --- |
| L172E | disrupting interaction |
| K153E | decreasing interaction |
